Legend:
HO-1 protein [1] = assay: Tin mesoporphyrin: renal cortical and plasma HO-1 protein (ELISA); type: in vivo, mice
Description: FIG. 29. Tin mesoporphryin effects on renal cortical and plasma HO-1 protein levels at 4 and 18 hrs post 1 umole injection. By 4 hrs and 18 hrs post Sn mesoporphyrin injection, an approximate 3 fold and 5 fold increases in renal cortical HO-1 levels over baseline (BL) were observed, as detected by ELISA. Plasma HO-1 levels rose ˜15 fold by 18 hrs post injection (n, 3-4 per group).

[2] = test system: bilateral renal ischemic injury; assay: 22 min bilateral renal ischemic injury after mesoporphyrin pre-treatment; type: in vivo, mice; settings: 1 umole 18 hrs before 22 min bilateral ischemic injury
Method: FIG. 31. Tin mesoporphyrin pre-treatment mitigates renal ischemic injury. Mice received either 1 umole of Sn mesoporphyrin (MeP; n, 3) or vehicle (n,4) and 18 hrs later they were all subjected to 22 min of bilateral ischemic injury.
Protection against acute kidney injury. Mice are treated with MesP alone (0.1-20.5 umoles), FeS alone (1 mg), MesP+FeS, or vehicle injection. Eighteen hrs post injections, the mice are anesthetized with pentobarbital. The abdominal cavities are opened. The renal pedicles are identified, and both are occluded with microvascular clamps. Body temperature are maintained at 36-37° C. throughout. Following 22 minutes of bilateral renal ischemia, the clamps are removed, uniform reperfusion are confirmed by the loss of tissue cyanosis, and then the abdominal cavities are closed in two layers with silk suture. Eighteen hrs later, the mice are re-anesthetized, the abdominal cavities are re-opened, and terminal blood samples are obtained from the vena cava. AKI severity are determined by degrees of BUN and plasma creatinine increases.

haptoglobin mRNA [3] = assay: SnPP vs. SnMeP: renal cortical haptoglobin mRNA induction (RT-PCR); type: in vivo, mice; settings: 1 umole, 4 hrs post injection, n 3
Description: (§1) FIG. 28. Comparison of SnPP vs. SnMeP effects on renal cortical HO-1 and haptoglobin mRNA induction 4 hrs post agent injection. Mice received either 1 umole tin protoporphyrin (SnPP), tin mesoporphyrin (SnMeP), or vehicle (n, 3 each) and 4 hrs renal cortical RNA was extracted and subjected to RT-PCR.

HO-1 mRNA [4] = assay: SnPP vs. SnMeP: renal cortical HO-1 mRNA induction (RT-PCR); type: in vivo, mice; settings: 1 umole, 4 hrs post injection, n 3
Description: as §1

haptoglobin = assay: Tin mesoporphyrin: renal cortical and plasma haptoglobin levels; type: in vivo, mice; settings: 4 and 18 hrs post 1 umole injection
HO-1 protein [5] = assay: Cardiac HO-1 protein (ELISA); type: in vivo, CD-1 mice; settings: 4 h after IV injection
Method: (§2) Thirty-two mice were divided into 4 equal groups: (1) control mice; (2) mice treated with 1 mg of N-Mgb injection (as a bolus through the tail vein); (3) mice treated with […] of SnPP (via tail vein); and (4) mice treated with combined N-Mgb 1 SnPP. After either 4 hours (n=16) or 18 hours (n=16), the mice were deeply anesthetized with pentobarbital (50 mg/kg), the abdomen was opened through a midline abdominal incision, and the kidneys were removed. To determine potential effects on extrarenal organs, a liver lobe and the heart were also removed. The tissues were iced and then extracted for protein and RNA (RNeasy Plus Mini; Qiagen, Valencia, Calif.) and subjected to enzyme linked immunosorbent assay (ELISA) and reverse transcriptase polymerase chain reaction (RT-PCR) for HO-1, haptoglobin, and IL-10 protein and messenger RNAs (mRNAs). Zager et al. J Am Soc Nephrol 2014; 25:998-1012; Zager et al. Am J Physiol 2012; 303:F139-48. As an assessment of renal function, control mice and the 18 hour after N-Mgb+SnPP-treated mice had blood urea nitrogen (BUN) and plasma creatinine levels measured. Additionally, transverse 10% formalin fixed kidney sections ([…]) were cut and stained with hematoxylin and eosin (H&E) and periodic acid Schiff (PAS) to further assess potential injury.

haptoglobin protein [6] = assay: Kidney haptoglobin protein (ELISA); type: in vivo, CD-1 mice
Method: as §2

HO-1 protein [7] = assay: Kidney HO-1 protein (ELISA); type: in vivo, CD-1 mice
Method: as §2

IL-10 mRNA [8] = assay: Cardiac IL-10 mRNA (RT-PCR); type: in vivo, CD-1 mice
Method: as §2

IL-10 protein [9] = assay: Cardiac IL-10 protein (ELISA); type: in vivo, CD-1 mice
Method: as §2

haptoglobin protein [10] = assay: Liver haptoglobin protein (ELISA); type: in vivo, CD-1 mice; parameters: unit not given beside the values
Method: as §2

[11] = Serum creatinine after 2 hr subcutaneous infusion of nitrited myoglobin + SnPP; type: in vivo, mice; settings: 2 hr SC infusion 1, 3, 6, 12, or 25 mg/Kg + 1 μmole SnPP; 18 hrs later
Method: Mice were subjected to a 2 hr subcutaneous infusion of 1, 3, 6, 12, or 25 mg/Kg of nitrited myoglobin (holding SnPP at a constant dose of 1 μmole). Eighteen hrs later, potential renal injury was assessed by measuring serum creatinine concentrations.
An obvious concern by applying this prophylactic strategy to patients is potential renal and/or extrarenal toxicities. […] Furthermore, it was previously documented in a cell culture system that nitrite addition markedly reduces myoglobin's cytotoxic effects by 75% (unpublished data, 2014). To assess the potential in vivo margin of safety for N-Mgb+SnPP (see Supplemental FIGS.), the maximal amount of N-Mgb that could be given to mice before nephrotoxicity was observed was tested. Up to 25 times the employed N-Mgb dose (with a constant SnPP dose) could be administered (over 2 hours) without induction of nephrotoxicity (normal BUN and creatinine, 18 hours later).

IL-10 protein [12] = assay: Kidney IL-10 protein (ELISA); type: in vivo, CD-1 mice
Method: as §2

HO-1 mRNA [13] = assay: Liver HO-1 mRNA (RT-PCR); type: in vivo, CD-1 mice
Method: as §2

IL-10 mRNA [14] = assay: Liver IL-10 mRNA (RT-PCR); type: in vivo, CD-1 mice
Method: as §2

HO-1 mRNA [15] = assay: Kidney HO-1 mRNA (RT-PCR); type: in vivo, CD-1 mice
Method: as §2

HO-1 mRNA [16] = assay: Cardiac HO-1 mRNA (RT-PCR); type: in vivo, CD-1 mice
Method: as §2

haptoglobin mRNA [17] = assay: Kidney haptoglobin mRNA (RT-PCR); type: in vivo, CD-1 mice
Method: as §2

IL-10 mRNA [18] = assay: Kidney IL-10 mRNA (RT-PCR); type: in vivo, CD-1 mice
Method: as §2

[19] = test system: glycerol model of rhabdomyolysis-induced AKI; assay: Glycerol model of rhabdomyolysis-induced AKI; type: in vivo, CD-1 mice; settings: IV pretreatment 18 h before glycerol; 18 hours after glycerol
Method: Assessments of cytoresistance. Glycerol model of rhabdomyolysis-induced AKI. Twenty mice were divided into 4 equal groups (controls, mice treated with N-Mgb, SnPP, and mice treated with N-Mgb+SnPP tail vein injections) as described previously. 18 hours later, the mice were briefly anesthetized with isoflurane and immediately injected with 9 mL/kg of 50% glycerol, administered in equally divided doses into each hind limb. At 18 hours after glycerol injection, the mice were anesthetized with pentobarbital, the abdomen was opened, a blood sample for BUN and creatinine assessments was obtained from the vena cava, and the kidneys were resected. The control post-glycerol group and the N-Mgb+SnPP-pretreated glycerol group had kidney sections stained with H&E.
To assess whether the previously determined plasma and kidney HO-1 and haptoglobin levels correlated with degrees of cytoresistance, additional mice were injected with 0, 2.5, or 5 mg of N-Mgb […] of SnPP (n=3 mice per group). Eighteen hours later, all mice were subjected to the glycerol AKI model as described previously. Severities of AKI were determined 18 hours after glycerol injection by BUN and plasma creatinine analyses.
Calculations and statistics. All values are given as the mean […] standard error of the mean. Statistical comparisons were made by unpaired Student's t test. […]

HK-2 cells = assay: HK-2 cell injury by MTT assay; type: cell-based; settings: 10 mg/ml, equimolar Na nitrite, 18 hr incubation
Method: HK-2 cells (a proximal tubule cell line derived from normal human kidney) were incubated in keratinocyte serum free medium either under normal (control) conditions or in the presence of 10 mg/mL horse skeletal muscle myoglobin or nitrited myoglobin (produced by equimolar Na nitrite addition to 10 mg/ml myoglobin). After 18 hr incubations, the severity of cell injury (% cell death) was assessed by MTT assay. Myoglobin induced 40% cell death (40% decrease in MTT cell uptake), compared to control incubated cells. Nitrite binding to myoglobin reduced cell death by 75%. Thus, nitrite binding is able to reduce myoglobin's cytotoxic effects.

haptoglobin mRNA [20] = assay: Liver haptoglobin mRNA (RT-PCR); type: in vivo, CD-1 mice
Method: as §2

haptoglobin mRNA [21] = assay: Cardiac haptoglobin mRNA (RT-PCR); type: in vivo, CD-1 mice
Method: as §2

haptoglobin protein [22] = assay: Cardiac haptoglobin protein (ELISA); type: in vivo, CD-1 mice
Method: as §2

HO-1 protein [23] = assay: Liver HO-1 protein (ELISA); type: in vivo, CD-1 mice; parameters: unit not given beside the values
Method: as §2

IL-10 protein [24] = assay: Liver IL-10 protein (ELISA); type: in vivo, CD-1 mice
Method: as §2

[25] = 4 h after IV injection, N-Mgb 1 mg, SnPP 1 mmol [sic]

Molecule: tin mesoporphyrin [SnMeP]
- Increase in renal cortical HO-1 levels over baseline (HO-1 protein [1]; 4 hrs post 1 umole injection): ~3 fold
- Increase in renal cortical HO-1 levels over baseline (HO-1 protein [1]; 18 hrs post 1 umole injection): ~5 fold
- Rise in plasma HO-1 levels (HO-1 protein [1]; 18 hrs post 1 umole injection): ~15 fold
- Renal ischemic damage (BUN and plasma creatinine concentrations) [2]: lessening of ischemic damage
- Renal cortical haptoglobin mRNA induction (haptoglobin mRNA [3]): raised
- Renal cortical HO-1 mRNA induction (HO-1 mRNA [4]): raised
- Renal cortical and plasma haptoglobin levels (haptoglobin): stepwise increases

B1: N-Mgb: horse myoglobin converted into a nitrited form by addition of equimolar sodium nitrite (protein, UniProt P68082 2-154, looked up)
Myoglobin: GLSDGEWQQVLNVWGKVEADIAGHGQEVLIRLFTGHPETLEKFDKFKHLKTEAEMKASEDLKKHGTVVLTALGGILKKKGHHEAELKPLAQSHATKHKIPIKYLEFISDAIIHVLHSKHPGDFGADAQGAMTKALELFRNDIAAKYKELGFQG
modifications: nitrite-modified
notes: horse myoglobin converted into a nitrited form by addition of equimolar sodium nitrite
- Cardiac protein HO-1 (HO-1 protein [5]): 1.64 ± 0.19
- Renal haptoglobin protein levels, in words (haptoglobin protein [6]; 18-hour time point, vs combination): comparably increased
- Kidney Haptoglobin protein (haptoglobin protein [6]; [25]): 17.6 ± 1^
- Kidney protein Haptoglobin (haptoglobin protein [6]; 18 h after IV injection): 183.8 ± 20.4
- Renal HO-1 protein increase, in words (HO-1 protein [7]; 18-hour time point, agent alone): only relatively small HO-1 protein increases
- Kidney HO-1 protein (HO-1 protein [7]; [25]): 36.1 ± 2.9
- Kidney protein HO-1 (HO-1 protein [7]; 18 h after IV injection): 30 ± 6
- Cardiac mRNA IL-10 (IL-10 mRNA [8]; 4 h after IV injection): 0.86 ± 0.11
- Cardiac mRNA IL-10 (IL-10 mRNA [8]; 18 h after IV injection): 0.67 ± 0.10
- Cardiac Protein IL-10 (IL-10 protein [9]; 4 h after IV injection): 21 ± 12
- Cardiac protein IL-10 (L-10 [sic]) (IL-10 protein [9]; 18 h after IV injection): 14.5 ± 10^
- Liver protein Haptoglobin (haptoglobin protein [10]; 4 h after IV injection): 359.5 ± 39.6
- Liver protein Haptoglobin (haptoglobin protein [10]; 18 h after IV injection): 358.8 ± 32.8
- Serum creatinine concentration change [11]: No significant increase
- Kidney IL-10 protein (IL-10 protein [12]; [25]): 265 ± 54
- Kidney protein IL-10 (IL-10 protein [12]; 18 h after IV injection): 292 ± 54
- Renal IL-10 protein increase, in words (IL-10 protein [12]; 18 hours, agent alone): absence of IL-10 protein increases
- Liver mRNA HO-1 (HO-1 mRNA [13]; 4 h after IV injection): 1.83 ± 0.33
- Liver mRNA HO-1 (HO-1 mRNA [13]; 18 h after IV injection): 0.82 ± 0.07
- Liver mRNA IL-10 (IL-10 mRNA [14]; 4 h after IV injection): 0.67 ± 0.46
- Liver mRNA IL-10 (IL-10 mRNA [14]; 18 h after IV injection): 0.06 ± 0.02
- Kidney mRNA HO-1 (HO-1 mRNA [15]; [25]): 3.38 ± 0.38
- Renal HO-1 mRNA increase, in words (HO-1 mRNA [15]; 4 hour, agent alone): only modest increases
- Kidney mRNA cortex HO-1 (HO-1 mRNA [15]; 18 h after IV injection): 0.58 ± 0.18
- Cardiac mRNA HO-1 (HO-1 mRNA [16]; 4 h after IV injection): 0.09 ± 0.01
- Cardiac mRNA HO-1 (HO-1 mRNA [16]; 18 h after IV injection): 0.08 ± 0.01
- Kidney mRNA Haptoglobin (haptoglobin mRNA [17]; [25]): 1.94 ± 0.31
- Kidney mRNA cortex Haptoglobin (haptoglobin mRNA [17]; 18 h after IV injection): 0.24 ± 0.04
- Impact on renal IL-10 mRNA levels, in words (IL-10 mRNA [18]; 4-hour time point, agent alone): either minimal or no impact
- Kidney mRNA IL-10 (IL-10 mRNA [18]; [25]): 1.45 ± 0.6
- Kidney mRNA cortex IL-10 (IL-10 mRNA [18]; 18 h after IV injection): 0.43 ± 0.10
- Protection against glycerol-induced AKI judged by BUN/creatinine levels [19]: modest protection
- Reduction of myoglobin-induced cell death by nitrite binding (HK-2 cells): 75%
- Liver mRNA Haptoglobin (haptoglobin mRNA [20]; 4 h after IV injection): 0.98 ± 0.1
- Liver mRNA Haptoglobin (haptoglobin mRNA [20]; 18 h after IV injection): 0.91 ± 0.07
- Cardiac mRNA Haptoglobin (haptoglobin mRNA [21]; 4 h after IV injection): 0.75 ± 0.10
- Cardiac mRNA Haptoglobin (haptoglobin mRNA [21]; 18 h after IV injection): 0.53 ± 0.21
- Cardiac protein Haptoglobin (haptoglobin protein [22]; 4 h after IV injection): 40.4 ± 8.6
- Cardiac protein Haptoglobin (haptoglobin protein [22]; 18 h after IV injection): 249.6 ± 15.0
- Liver protein HO-1 (HO-1 protein [23]; 4 h after IV injection): 17 ± 2
- Liver protein HO-1 (HO-1 protein [23]; 18 h after IV injection): 14.9 ± 0.3
- Liver protein IL-10 (IL-10 protein [24]; 4 h after IV injection): 286 ± 32
- Liver protein IL-10 (IL-10 protein [24]; 18 h after IV injection): 5988 ± 549

— patent publication US20190358242A1, “COMPOSITIONS, KITS, AND METHODS TO INDUCE ACQUIRED CYTORESISTANCE USING STRESS PROTEIN INDUCERS” (FRED HUTCHINSON CANCER RESEARCH CENTER, priority 2017, published 2019)
